US5633227A, “Secretory leukocyte protease inhibitor as an inhibitor of tryptase” (Miles, Inc., priority 1994, dated 1997)
Values joined by “and” are separate entries in the source; they are usually repeats but may differ in a detail not shown here. Identical values can stand only once. Like-named read-outs stand apart in the source and are kept apart here.

Experiments:
human mast cell tryptase = assay: VIP assay for tryptase activity (Dns-VIP hydrolysis, HPLC/fluorescence, Dixon plot); format: biochemical; settings: rate of loss of full-length VIP (1-28), 0.2 and 0.8 μM VIP, 37° C., read-out: Ki for inhibition of tryptase degradation of full length Dns-VIP
Experimental: In a typical assay, mast cell tryptase (12.5 pM) was incubated at 37° C. with dansyl-VIP (0.2-2 μM) in 100 mM Tris-HCl (pH 8.0) containing 1 μg/ml porcine mucosal heparin and 0.02% Triton X-100 in a final volume of 2.0 ml. To some samples, secretory leukocyte protease inhibitor was added to a final concentration of between 0 and 107 nM. The tryptase was pre-incubated with the SLPI, if added, for 5 min. at 37° C. before initiating the reaction by the addition of Dns-VIP. Aliquots (250 μl) were removed at 0, 2.5, 5.0, 7.5, 10, and 20 minutes to micro-vials (Sunbrokers) and the reaction terminated by the addition of TFA to a final concentration of 3% (v/v). The acidified reaction mixture was subjected to chromatography on a C-18 reverse-phase column (Vydac, 5 micron, 0.46×25 cm). Peptide hydrolysis was monitored by HPLC using a Hewlett Packard HP1090 unit complete with binary solvent delivery and autoinjection capability. Fluorescent detection (postcolumn) was performed with an inline Gilson Model 121 filter fluorimeter (excitation at 310-410 nm, emission at 480-520 nm). Dns-VIP fragments were separated from any unconverted Dns-VIP using a linear gradient of 69:31 (v/v) to 50:50 (v/v) C:D over 5.5 minutes (C=100 mM sodium acetate, pH 6.5 plus 0.2% sodium azide, D=80% ACN in water), with return to 69:31 (v/v) C:D at 6.5 minutes. Chromatography was performed at 1.0 ml/min at 25° C. […]

tryptase = assay: GPK-AMC assay for tryptase activity (Dixon plot); format: biochemical, human; settings: Table V footnote
Experimental: Tryptase activity was measured according to the procedure of Schwartz, et al., J. Biol. Chem., 261, 7372-7379 (1986) , with minor modifications, using Gly-Pro-Lys-Aminomethylcoumarin (GPK-AMC) as a substrate. The reaction was performed in assay buffer (0.1M Tris, pH 8.0, 10 μg/ml heparin) at room temperature in a 96-well microtiter plate (Perkin-Elmer, Norwalk, Conn.). The amount of coumarin produced by tryptase was determined by measuring the fluorescence (ex=372 nm, em=432 nm) on a Perkin-Elmer LS-50B fluorimeter equipped with a plate reader. 50 μl of tryptase (final concentration of 333 pM) was mixed with either 50 μl of the sample to be tested or with assay buffer and incubated for 5 min. at room temperature. […] The fluorescence intensity was measured every 5 minutes. For samples that were being tested for modulators of tryptase activity, the % inhibition for each fraction was determined by:
Inhibitory activity against tryptase and bovine trypsin was measured using Gly-Pro-Lys-aminomethylcoumarin as a substrate. […] The amount of coumarin produced was determined by measuring the fluorescence (ex=370 nm, em=432 nm) on a Perkin-Elmer LS-50B fluorimeter. […] The reaction was started by the addition of the substrate GPK-AMC (20 or 40 μM final) and the increase in fluorescence was measured over a 2 minute period. […]

Response in GPK-AMC tryptase assay (tryptase): biphasic response
B1: secretory leukocyte protease inhibitor (protein)
chain: SGKSFKAGVCPPKKSAQCLRYKKPECQSDWQCPGKKRCCPDTCGIKCLDPVDTPNPTRRKPGKCPVTYGQCLMLNPPNFCEMDGQCKRDLKCCMGMCGKSCVSPVKA
Ki (human mast cell tryptase; listed as Full SLPI): 8 nM
Ki (human mast cell tryptase): 8 nM and ~8 nM
